One data set addresses T1, NRP1 (Homo sapiens, UniProt O14786).
T1 construct: purchased R&D 3870-N1-025
T1 sequence (O14786 22-644 isoform O14786-2 limits assumed): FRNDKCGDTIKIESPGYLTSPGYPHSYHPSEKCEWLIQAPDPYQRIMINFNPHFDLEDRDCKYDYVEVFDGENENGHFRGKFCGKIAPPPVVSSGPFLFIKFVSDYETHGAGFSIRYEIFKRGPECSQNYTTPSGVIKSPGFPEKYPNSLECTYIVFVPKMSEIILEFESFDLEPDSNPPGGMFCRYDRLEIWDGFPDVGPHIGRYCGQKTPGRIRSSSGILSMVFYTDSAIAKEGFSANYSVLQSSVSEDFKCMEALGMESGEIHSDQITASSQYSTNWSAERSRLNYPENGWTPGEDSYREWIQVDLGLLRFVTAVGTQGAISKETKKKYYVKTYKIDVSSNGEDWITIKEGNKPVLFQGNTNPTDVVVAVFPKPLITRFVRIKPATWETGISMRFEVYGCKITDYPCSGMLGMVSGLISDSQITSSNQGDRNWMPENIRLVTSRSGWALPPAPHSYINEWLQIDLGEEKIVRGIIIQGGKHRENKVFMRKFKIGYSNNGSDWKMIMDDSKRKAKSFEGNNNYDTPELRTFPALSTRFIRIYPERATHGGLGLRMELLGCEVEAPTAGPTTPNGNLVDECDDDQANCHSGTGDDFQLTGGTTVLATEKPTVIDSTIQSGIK
Kind of data set: Bio-layer interferometry (BLI) of CTR-RELN-NRP-1 interactions. It counts as binding. Conditions: immobilized biotinylated NRP1. As for the experimental part:
Bio-layer interferometry (BLI) was additionally used to assess NRP1-protein kinetics at 30° C. and 1000 rpm agitation. 1 mg/mL NRP1 (R&D 3870-N1-025) was biotinylated at a 1:2 molar ratio, desalted, and immobilized on the SA biosensor tip (Pall ForteBio) surface. This was followed by 1) 180 seconds baseline buffer diluent, 2) loading of the ligand (NRP1), 3) 180 seconds baseline buffer diluent, 4) 240 seconds association (analyte), and 5) 300 seconds disassociation in assay buffer. Assay buffer: SD Buffer (pH7.4 PBS, 0.05% tween20, 0.01% BSA).
The experimental data were fit with the 1:1 binding model and analyzed with global fitting using Octet Data Analysis software to calculate KD.
Bio-layer interferometry (BLI) was used to assess NRP1-protein kinetics at 30° C. and 1000 rpm agitation using previously published methods. 1 mg/mL NRP1 (R&D 3870-N1-025) was biotinylated at a 1:2 molar ratio, desalted, and immobilized on the SA biosensor tip (Pall ForteBio) surface. This was followed by 1) 180 seconds baseline buffer diluent, 2) loading of the ligand (NRP1), 3) 180 seconds baseline buffer diluent, 4) 240 seconds association (analyte), and 5) 300 seconds disassociation in assay buffer. Assay buffer: SD Buffer (pH7.4 PBS, 0.05% tween20, 0.01% BSA).
Background: In BLI a coated tip is dipped into the sample, and binding shifts an interference pattern.

The subject of the next data set is SH-SY5Y cells. Kind of data set: Lactate dehydrogenase assay in SH-SY5Y cells treated with oligomeric Tau. Format: cell-based. As for the experimental part: A lactate dehydrogenase assay was performed in SH-SY5Y cells treated 24 h with pre-formed oligomeric Tau (oTau) either alone or in the presence of C-term RELN WT (184I). The lactate dehydrogenase assay was performed as follows. 100 k neuroblastoma (SH-SY5Y, ATCC) cells/well were plated in 96-well TC treated plates in growth media (DMEM/F12, Gibco, 10% heat-inactivated FBS, R&D, 200 ug normocin) and allowed to attach and grow overnight. Next day, test compounds were allowed to thaw on wet ice. Phenol-free and serum free DMEM/F12 no serum no antibiotic media was warmed and a 50 mL aliquot was sterile filtered (0.22 um) as test media. In TC cabinet, thawed test compounds were mixed via pipetting then added to final concentration for each test condition in filtered test media and mixed through pipetting. Test conditions were allowed to pre-incubate for 15 mins at RT in TC cabinet. Wells were gently aspirated and gently washed with 200 uL prewarmed Test media, then gently aspirated and 100 μL of test conditions were added and allowed to incubate in TC incubator at 5% CO2 for 21 hrs. LDH performed using Roche kit according to manufacturer's protocol.

“Also recorded” adds a separate entry of the source.

B1: pfcn-huIgG2-C-termH3447WT (protein)
chain: MYRMQLLSCIALSLALVTNSAPLERKSSVECPPCPAPPVAGPSVFLFPPKPKDTLMISRTPEVTCVVVDVSHEDPEVQFNWYVDGVEVHNAKTKPREEQFNSTFRVVSVLTVVHQDWLNGKEYKCKVSNKGLPAPIEKTISKTKGQPREPQVYTLPPSREEMTKNQVSLTCLVKGFYPSDIAVEWESNGQPENNYKTTPPMLDSDGSFFLYSKLTVDKSRWQQGNVFSCSVMHEALHNHYTQKSLSLSPGARTSTRKQNYMMNFSRQHGLRHFYNRRRRSLRRYP
With B1, in the data set with NRP1, the ka turned out to be 9400 M⁻¹ s⁻¹ and the kd came to 0.00573 s⁻¹. Moreover, the “cytotoxicity of construct (LDH)” value with SH-SY5Y cells is recorded as “did not show any cytotoxicity”. Further, the “oligomeric Tau-induced cytotoxicity (LDH)” value with SH-SY5Y cells (oTau with construct) is reported as “reduction of oTau-derived cytotoxicity; also recorded: Reduced oligomeric Tau-induced cytotoxicity”.
